Read-outs that look alike come from different tables or passages of the source.
T1: human p75 receptor fusion protein (R&D Systems) (human, UniProt P08138 29-250)
T1 construct: bought fusion protein; also called p75 neurotrophin receptor
T1 sequence (looked up): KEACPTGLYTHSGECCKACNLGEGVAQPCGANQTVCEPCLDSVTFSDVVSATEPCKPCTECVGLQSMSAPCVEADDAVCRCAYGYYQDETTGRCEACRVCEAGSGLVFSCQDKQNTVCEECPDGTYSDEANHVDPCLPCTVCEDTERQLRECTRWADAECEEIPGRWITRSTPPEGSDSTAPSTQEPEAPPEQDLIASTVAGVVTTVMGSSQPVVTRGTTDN

B1: rat nerve growth factor (beta-NGF) (ligand, UniProt P25427 122-241, looked up)
chain: SSTHPVFHMGEFSVCDSVSVWVGDKTTATDIKGKEVTVLGEVNINNSVFKQYFFETKCRAPNPVESGCRGIDSKHWNSYCTTTHTFVKALTTDDKQAAWRFIRIDTACVCVLSRKAARRG
notes: mature; also called rat NGF; recombinant rat β-NGF

Tests used:
[1] = biological target: T2, human nerve growth factor (beta-NGF) (human, UniProt P01138 122-241); experiment: cell-based or functional assay
T2 sequence (P01138 122-241): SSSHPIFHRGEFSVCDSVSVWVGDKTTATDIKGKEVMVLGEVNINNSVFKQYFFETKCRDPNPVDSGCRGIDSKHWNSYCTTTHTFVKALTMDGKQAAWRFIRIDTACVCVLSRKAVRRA

[2] = biological target: B1; experiment: cell-based or functional assay
[3] = biological target: mouse nerve growth factor (mouse, UniProt P01139 122-241); experiment: cell-based or functional assay
mouse nerve growth factor, sequence (P01139 122-241): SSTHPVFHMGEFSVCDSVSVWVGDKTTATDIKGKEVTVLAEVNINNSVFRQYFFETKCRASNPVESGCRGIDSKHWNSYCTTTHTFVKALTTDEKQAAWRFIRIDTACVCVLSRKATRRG

[4] = biological target: B1; experiment: inhibition of rat 125I-NGF binding to coated p75 fusion protein
Experimental: (§1) Human TrkA and p75 receptor fusion proteins (R&D Systems) were diluted in Dulbecco's PBS (Gibco) to final concentrations of 10 nM and 0.6 nM, respectively. Maxisorp Nunc white 96 well microtitre plates (Nalge Nunc) were coated overnight at 4° C. with 100 μl/well of the diluted TrkA or p75 receptor solution. Plates were washed 3 times with PBS Tween 20, and then blocked with 200 μl/well 3% w/v bovine serum albumin (BSA) in PBS. Plates were washed after 1 h incubation at room temperature. Test antibodies were diluted to the desired concentration in assay buffer (0.5% w/v BSA and 0.05% v/v Tween 20 in PBS). […] Duplicate wells were prepared for each concentration of test sample. […] Bound radiolabel was quantified by addition of 100 μl/well Microscint 20 (Perkin Elmer) followed by counting using a Packard TopCount microplate liquid scintillation counter. Data were plotted and analysed using Graphpad Prism software to calculate IC₅₀ values for each experiment, and to derive the corresponding Ki according to the Cheng-Prusoff equation; Ki=IC₅₀/(1+D/Kd) Where: [0257]

[5] = biological target: B1; experiment: inhibition of rat 125I-NGF binding to coated TrkA fusion protein
Experimental: as §1

[6] = biological target: T2, human nerve growth factor (beta-NGF); experiment: inhibition of human 125I-NGF binding to coated p75 fusion protein
Experimental: as §1

[7] = biological target: T2, human nerve growth factor (beta-NGF); experiment: inhibition of human 125I-NGF binding to coated TrkA fusion protein
Experimental: as §1

[8] = biological target: T2, human nerve growth factor (beta-NGF); experiment: cell-based or functional assay; remark: listed apart in the source
[9] = biological target: B1; experiment: cell-based or functional assay; remark: listed apart in the source
[10] = biological target: T2, human nerve growth factor (beta-NGF); experiment: cell-based or functional assay; remark: listed apart in the source
[11] = biological target: B1; experiment: cell-based or functional assay; remark: listed apart in the source
[12] = biological target: B1; experiment: rat 125I-NGF saturation binding to captured IgG4, one-site model
Experimental: (§2) Briefly, flashplates (Perkin Elmer SMP200) were coated with 100 μl/well of 2.2 μg/ml goat anti-human IgG (Sigma-Aldrich, UK) in phosphate buffered saline (PBS) for 1 h. Wells were washed with PBS and then blocked for 1 h with 200 μl/well PBS containing 3% w/v bovine serum albumin (BSA; Sigma-Aldrich, UK). […] Following incubation for 1 h plates were washed with PBS.
(§3) Plates were incubated overnight, and wells counted for 1 min on a gamma counter (TopCount NXT, Perkin Elmer). Specific binding was calculated according to the formula ‘specific binding=total binding−non-specific binding’. Binding curves were plotted and binding parameters determined according to a one-site saturation binding model using Prism software (GraphPad Software Inc., USA).

[13] = biological target: T2, human nerve growth factor (beta-NGF); experiment: human 125I-NGF saturation binding to captured IgG4, one-site model
Experimental: as §2, §3

[14] = biological target: B1; experiment: inhibition of rat 125I-NGF binding to coated p75 fusion protein, Cheng-Prusoff, n=3
Experimental: (§4) Competition binding experiments were designed in order to calculate binding inhibition constant (Ki) values. […] Ki values were then derived using the Cheng-Prusoff equation.
as §1

[15] = biological target: B1; experiment: inhibition of rat 125I-NGF binding to coated TrkA fusion protein, Cheng-Prusoff, n=3
Experimental: as §4, §1

[16] = biological target: T2, human nerve growth factor (beta-NGF); experiment: inhibition of human 125I-NGF binding to coated p75 fusion protein, Cheng-Prusoff, n=3
Experimental: as §4, §1

[17] = biological target: T2, human nerve growth factor (beta-NGF); experiment: inhibition of human 125I-NGF binding to coated TrkA fusion protein, Cheng-Prusoff, n=3
Experimental: as §4, §1

[18] = biological target: T1, human p75 receptor fusion protein (R&D …); experiment: unlabelled NGF displacing rat 125I-NGF from coated p75 fusion protein
Experimental: as §1

[19] = biological target: T3, human TrkA receptor extracellular domain fusion protein (R&D Systems) (human, UniProt P04629 33-423); experiment: unlabelled NGF displacing rat 125I-NGF from coated TrkA fusion protein
T3 construct: extracellular domain; bought fusion protein; also called TrkA receptor fusion protein
T3 sequence (P04629 33-423): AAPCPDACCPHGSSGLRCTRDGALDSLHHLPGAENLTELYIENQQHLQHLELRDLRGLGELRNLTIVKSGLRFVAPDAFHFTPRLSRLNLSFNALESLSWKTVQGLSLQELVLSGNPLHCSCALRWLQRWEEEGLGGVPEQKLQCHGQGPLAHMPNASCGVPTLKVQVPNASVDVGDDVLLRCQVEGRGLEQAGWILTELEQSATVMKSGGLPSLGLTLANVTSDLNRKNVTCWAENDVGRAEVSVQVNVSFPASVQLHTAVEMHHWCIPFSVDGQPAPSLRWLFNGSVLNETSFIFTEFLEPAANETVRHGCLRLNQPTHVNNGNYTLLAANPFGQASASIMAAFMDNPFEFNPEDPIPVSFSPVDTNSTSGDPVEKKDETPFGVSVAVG

IC50, FLIPR calcium mobilisation [3] [nM]	IC50, TF-1 cell proliferation [3] [nM]	IC50 [4] [nM]	Ki [4] [nM]	IC50 [5] [nM]	Ki [5] [nM]	IC50 [6] [nM]	Ki [6] [nM]	IC50 [7] [nM]	Ki [7] [nM]	IC50, calcium mobilisation assay [8] [nM]	IC50, calcium mobilisation assay [9] [nM]	IC50, FLIPR calcium mobilisation [10] [nM]	IC50, FLIPR calcium mobilisation [11] [nM]	Molecule	IC50, PC12 cell survival [10] [nM]	other results
1.4	7	2.94	2.67	1.48	1.38	0.304	0.252	1.94	1.76					mouse anti-human NGF MAB256 (R&D Systems) (antibody)		IC50, FLIPR calcium mobilisation [1]: 0.76 nM; IC50, PC12 cell survival [1]: 23 nM; IC50, TF-1 cell proliferation [1]: 6 nM; IC50, calcium mobilisation assay [1]: 0.76 nM; IC50, FLIPR calcium mobilisation [2]: 0.79 nM; IC50, PC12 cell survival [2]: 44 nM; IC50, TF-1 cell proliferation [2]: 5 nM; IC50, calcium mobilisation assay [2]: 0.79 nM
										2.5	5.5			1064F8 human IgG4 (antibody, V domains shown) VH: EVQLVQSGAEVKKPGSSVKVSCKASGGTFSSYAYTWVRQAPGQGLEWMGGIVPIFGSTNYAQKFQGRLTITADEFTSTAHMELSSLTSADTAVYYCAGGSDLYCSGGNCYGGGHYYYYMDVWGQGTTVTVSS VL: SSELTQDPAVSVALGQTVRITCTGTSSDVGGYNYVSWYQQHPGKAPKLMIYEGSKRPSGVSNRFSGSKSGNTASLTISGLQAEDEADYYCSSYTTRSTRVFGGGTKLTVL		
54										30	61	30	61	1083H4 human IgG4 (antibody, V domains shown) VH: QMQLVQSGAEVKKTGSSVKVSCKASGYTFAYHYLHWVRQAPGQGLEWMGGIIPIFGTTNYAQRFQDRVTITADESTSTAYMELSSLRSEDTAVYYCASADYVWGSYRPDWYFDLWGRGTMVTVSS VL: QSVLTQPPSASGTPGQRVTISCSGSSSNIGSNTVNWYQRLPGAAPQLLIYNNDQRPSGIPDRFSGSKSGTSGSLVISGLQSEDEADYYCASWDDSLNGRVFGGGTKLTVL	~1100	
47										76	75	76	75	1021E5 human IgG4 (antibody, V domains shown) VH: EVQLVQSGAEVKKPGSSVKVSCKASGGTFSTYGISWVRQAPGQGLEWIGGIIPIFDTGNSAQSFQGRVTITADESTSTAYMEVSSLRSDDTAVYYCASSSRIYDYAGGDHYYYDMDVWGQGTMVTVSS VL: QAVLTQPSSVSTPPGQKVTISCSGSSSNIGNNYVSWYQQLPGTAPKLLIYDNNKRPSGIPDRFSGSKSGTSATLGITGLQTGDEADYYCGTWDSSLSAWVFGGGTKLTVL	~1300	
0.18	0.99	0.781	0.708	0.538	0.499	0.348	0.288	0.204	0.184			0.22	0.27	G1152H5 human IgG4 (antibody, V domains shown, tested as whole human IgG4; also called germlined 1152H5) VH: QVQLVQSGAEVKKPGSSVKVSCKASGGTFSTYGISWVRQAPGQGLEWMGGIIPIFDTGNSAQSFQGRVTITADESTSTAYMELSSLRSEDTAVYYCARSSRIYDMISSLQPYYDMDVWGQGTMVTVSS VL: QSVLTQPPSVSAAPGQKVTISCSGSSSNIGNNYVSWYQQLPGTAPKLLIYDNNKRPSGIPDRFSGSKSGTSATLGITGLQTGDEADYYCGTWDSSLSAWVFGGGTKLTVL	1.1	IC50, TF-1 cell proliferation [10]: 0.44 nM; IC50, PC12 cell survival [11]: 7.3 nM; IC50, TF-1 cell proliferation [11]: 1.44 nM; Kd [12]: 0.5 nM; Kd [13]: 0.37 nM; pKi [14]: 9.24; pKi [15]: 9.18; pKi [16]: 9.56; pKi [17]: 9.59
0.26	0.55	0.302	0.274	0.151	0.14	0.188	0.155	0.068	0.061			0.33	0.29	1252A5 IgG4 (antibody, V domains shown, tested as whole human IgG4; also called germlined 1133C11) VH: QVQLVQSGAEVKKPGSSVKVSCKASGGTFSTYGISWVRQAPGQGLEWMGGIIPIFDTGNSAQSFQGRVTITADESTSTAYMELSSLRSEDTAVYYCARSSRIYDLNPSLTAYYDMDVWGQGTMVTVSS VL: QSVLTQPPSVSAAPGQKVTISCSGSSSNIGNNYVSWYQQLPGTAPKLLIYDNNKRPSGIPDRFSGSKSGTSATLGITGLQTGDEADYYCGTWDSSLSAWVFGGGTKLTVL	0.94	IC50, TF-1 cell proliferation [10]: 0.42 nM; IC50, PC12 cell survival [11]: 2.7 nM; IC50, TF-1 cell proliferation [11]: 0.72 nM; Kd [12]: 0.44 nM; Kd [13]: 0.35 nM; pKi [14]: 9.55; pKi [15]: 9.79; pKi [16]: 9.85; pKi [17]: 10.3
										18	14			1022E3 human IgG4 (antibody, V domains shown) VH: QVQLVQSGAEVKKPGASVKVSCKASGYSFINYSMHWVRQAPGQGLEWIGIINPGGDSTKYTQRFQDRVTMTWDTSTSTVYMDLSSLRSEDTAIYYCARGLHPIPMMLATINPIFAYWGQGTLVTVSS VL: SSELTQDPAVSVALGQTVRITCRGDSLRNYYANWYQQKPGQAPVLVIYDENKRPSGIPDRFSGSGSGNTASLTITGAQAEDEADYFCNSRDTFGYVRDVLFGGGTKVTVL		
														B1		IC50 [18]: 0.783 nM; Ki [18]: 0.71 nM; IC50 [19]: 1.3 nM; Ki [19]: 1.2 nM
										~410	~565			1024C4 human IgG4 (antibody, V domains shown) VH: QVQLQESGGGVVQPGRSLRLSCAASGFAFKKYGLHWVRQAPGKGLEWVGVTSYDGSKNYYADSVKGRFTISRDNSKNTLYLQVNSLRPEDTAVYYCAKDGEVGDLHLVPFRQDSGLDVWGRGTLVTVSS VL: QSVLTQPPSVSVSPGQTASITCSGDNLGDKYVHWYQQKPGQSPVLVTYQDTKRPSGIPERFSGSNSGNTATLTISGTQAMDEAGYYCQAWDSSTVVFGGGTKLTVL		

— US20080107658A1 (AstraZeneca / MedImmune, published 2008)
